From patent US20240287138A1 (Merck Sharp & Dohme, published 2024)
Bridge positions count the residues as written; N and C are the ends. Square brackets hold non-standard residues; d marks the D form. Primed or numbered codes have the meaning given here. Trp(βS-Me,7-OMe) = COc1cccc2c([C@H](C)[C@H](N)C(=O)O)c[nH]c12; Phe(2-F,4-COOH) = N[C@@H](Cc1ccc(C(=O)O)cc1F)C(=O)O; Trp(7-CN) = N#Cc1cccc2c(C[C@H](N)C(=O)O)c[nH]c12; Trp(7-Cl) = N[C@@H](Cc1c[nH]c2c(Cl)cccc12)C(=O)O; Phe(3-COOH) = N[C@@H](Cc1cccc(C(=O)O)c1)C(=O)O; Phe(4-CONH2) = NC(=O)c1ccc(C[C@H](N)C(=O)O)cc1; Phe(4-COOH) = N[C@@H](Cc1ccc(C(=O)O)cc1)C(=O)O; Trp(7-aza) = N[C@@H](Cc1c[nH]c2ncccc12)C(=O)O; Phe(4-CH2NH2) = NCc1ccc(C[C@H](N)C(=O)O)cc1; dPro(trans-4-F) = O=C(O)[C@H]1C[C@H](F)CN1; Pip(4-aza) = O=C(O)[C@@H]1CNCCN1; 3Pal = N[C@@H](Cc1cccnc1)C(=O)O; 4Pal = N[C@@H](Cc1ccncc1)C(=O)O; NMeE = CN[C@@H](CCC(=O)O)C(=O)O; dHyp = O=C(O)[C@H]1C[C@H](O)CN1; dNMeE = CN[C@H](CCC(=O)O)C(=O)O; Phe4AcPip = not defined here; Pipt5OH = not defined here; αMeS = C[C@](N)(CO)C(=O)O; Nle = CCCC[C@H](N)C(=O)O; Pip2c = not defined here; TZAla = not defined here; Ahp′ = not defined here; Pip′ = not defined here; Sar = CNCC(=O)O

T1: TNFR1 on THP-1 Lucia NF-κB cells (UniProt P19438 30-455, limits assumed)
T1 sequence (looked up): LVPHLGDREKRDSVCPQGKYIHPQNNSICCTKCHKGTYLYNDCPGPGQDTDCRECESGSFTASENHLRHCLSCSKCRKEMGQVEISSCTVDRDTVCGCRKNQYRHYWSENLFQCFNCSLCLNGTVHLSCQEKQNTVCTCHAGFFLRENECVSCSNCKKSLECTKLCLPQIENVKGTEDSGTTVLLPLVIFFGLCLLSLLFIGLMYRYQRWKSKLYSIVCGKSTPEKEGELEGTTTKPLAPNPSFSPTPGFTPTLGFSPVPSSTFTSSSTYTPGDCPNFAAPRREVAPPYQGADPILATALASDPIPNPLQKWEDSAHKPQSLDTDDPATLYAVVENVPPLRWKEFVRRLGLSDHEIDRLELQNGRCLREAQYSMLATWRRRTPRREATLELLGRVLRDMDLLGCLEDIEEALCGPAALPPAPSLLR

T2: TNFR1 on THP-1 Lucia NF-kB reporter cells (UniProt P19438 30-455, limits assumed)
T2 sequence (looked up): T1 sequence (looked up)

B1: SEQ ID NO. 279 (peptide)
peptide: {CH2CO}-[Nle][4Pal][Pip(4-aza)]W[dPro(trans-4-F)]N[4Pal][Trp(7-Cl)][αMeS][Phe(4-COOH)]Y[Sar][Trp(βS-Me,7-OMe)]C-NH2
modifications: thioether N-14
SMILES: CCCC[C@@H]1NC(=O)CSC[C@@H](C(N)=O)NC(=O)[C@H]([C@@H](C)c2c[nH]c3c(OC)cccc23)NC(=O)CN(C)C(=O)[C@H](Cc2ccc(O)cc2)NC(=O)[C@H](Cc2ccc(C(=O)O)cc2)NC(=O)[C@](C)(CO)NC(=O)[C@H](Cc2c[nH]c3c(Cl)cccc23)NC(=O)[C@H](Cc2ccncc2)NC(=O)[C@H](CC(N)=O)NC(=O)[C@H]2C[C@H](F)CN2C(=O)[C@H](Cc2c[nH]c3ccccc23)NC(=O)[C@@H]2CNCCN2C(=O)[C@H](Cc2ccncc2)NC1=O
B2: SEQ ID NO. 25 (peptide)
peptide: cyclo([bhcLeu][Nle][4Pal][Pipt5OH]W[dHyp][SbOHAsn][4Pal][Trp(7-CN)][αMeS][Phe(4-CONH2)][Phe(4-COOH)][Sar][Trp(βS-Me,7-OMe)])
modifications: reading uncertain; also: printed as cyclo(bhcLeu-Nle-4Pal-Pipt5OH-W-dProt4OH-SbOHAsn-4Pal-Trp7CN-aMeS-Phe4CONH2-Phe4COOH-Sar-SbMeW7OMe)
B3: SEQ ID NO. 138 (peptide)
peptide: cyclo([bhcLeu][Nle][4Pal][Pip2c]W[NMeE]N[TZAla][Trp(7-Cl)][αMeS][Phe(4-COOH)]Y[Sar][Trp(βS-Me,7-OMe)])
modifications: reading uncertain; also: printed as cyclo(bhcLeu-Nle-4Pal-Pip2c-W-NMeE-N-TZAla-Trp7Cl-aMeS-Phe4COOH-Y-Sar-SbMeW7OMe)
B4: SEQ ID NO. 108 (peptide)
peptide: cyclo([bhcLeu][Nle][4Pal][Pip2c]W[NMeE]N[Phe(2-F,4-COOH)][Trp(7-Cl)][αMeS][Phe(4-COOH)]Y[Sar][Trp(βS-Me,7-OMe)])
modifications: reading uncertain; also: printed as cyclo(bhcLeu-Nle-4Pal-Pip2c-W-NMeE-N-Phe2F4COOH-Trp7Cl-aMeS-Phe4COOH-Y-Sar-SbMeW7OMe)
B5: SEQ ID NO. 40 (peptide)
peptide: cyclo([bhcLeu][Nle][3Pal][Pip2c]W[NMeE]N[4Pal][Trp(7-Cl)][αMeS][Phe(4-COOH)]Y[Sar][Trp(βS-Me,7-OMe)])
modifications: reading uncertain; also: printed as cyclo(bhcLeu-Nle-3Pal-Pip2c-W-NMeE-N-4Pal-Trp7Cl-aMeS-Phe4COOH-Y-Sar-SbMeW7OMe)
B6: SEQ ID NO. 126 (peptide)
peptide: cyclo([bhcLeu][Nle][4Pal][Pipt5OH]W[NMeE]N[4Pal][Trp(7-Cl)][αMeS][Phe(4-CONH2)][TyrOcm][Sar][Trp(βS-Me,7-OMe)])
modifications: reading uncertain; also: printed as cyclo(bhcLeu-Nle-4Pal-Pipt5OH-W-NMeE-N-4Pal-Trp7Cl-aMeS-Phe4CONH2-TyrOcm-Sar-SbMeW7OMe)
B7: SEQ ID NO. 52 (peptide)
peptide: {CH2CO}-[Nle][4Pal][Pip2c][TrpCH2COOH][NMeE]N[Phe(4-COOH)][Trp(7-Cl)][αMeS][Phe(4-CONH2)]Y[Sar][Trp(βS-Me,7-OMe)]C-NH2
modifications: thioether N-14; reading uncertain; also: printed as cyclo(ClAc-Nle-4Pal-Pip2c-TrpCH2COOH-NMeE-N-Phe4COOH-Trp7Cl-aMeS-Phe4CONH2-Y-Sar-SbMeW7OMe-C)-NH2
B8: SEQ ID NO. 58 (peptide)
peptide: {CH2CO}-[Nle][4Pal][Pip′][Trp(7-aza)][NMeE]N[Phe(4-CH2NH2)][Trp(7-Cl)][αMeS][Phe(4-CH2NH2)]Y[Sar][Trp(βS-Me,7-OMe)]C-NH2
modifications: thioether N-14
B9: SEQ ID NO. 24 (peptide)
peptide: cyclo([bhcLeu][Nle][4Pal][Pip2c]W[NMeE]N[4Pal][Trp(7-Cl)][αMeS][Phe(4-COOH)][Tyr3OMe][Sar][Trp(βS-Me,7-OMe)])
modifications: reading uncertain; also: printed as cyclo(bhcLeu-Nle-4Pal-Pip2c-W-NMeE-N-4Pal-Trp7Cl-aMeS-Phe4COOH-Tyr3OMe-Sar-SbMeW7OMe)
B10: SEQ ID NO. 111 (peptide)
peptide: cyclo([bhcLeu][Nle][4Pal][Pip2c]W[NMeE]N[4Pal][Trp(7-Cl)][αMeS][F4MCO2H]Y[Sar][Trp(βS-Me,7-OMe)])
modifications: reading uncertain; also: printed as cyclo(bhcLeu-Nle-4Pal-Pip2c-W-NMeE-N-4Pal-Trp7Cl-aMeS-F4MCO2H-Y-Sar-SbMeW7OMe)
B11: SEQ ID NO. 63 (peptide)
peptide: cyclo([bhcLeu][Nle][4Pal][Pip2c]W[NMeE]N[4Pal][Trp(7-Cl)][αMeS][Phe(4-COOH)][Phe4AcPip][Sar][Trp(βS-Me,7-OMe)])
modifications: reading uncertain; also: printed as cyclo(bhcLeu-Nle-4Pal-Pip2c-W-NMeE-N-4Pal-Trp7Cl-aMeS-Phe4COOH-Phe4AcPip-Sar-SbMeW7OMe)
B12: SEQ ID NO. 120 (peptide)
peptide: cyclo([bhcLeu][Nle][4Pal][Pipc5CO2H]W[NMeE]N[4Pal][Trp(7-Cl)][αMeS][Phe(4-COOH)]Y[Sar][Trp(βS-Me,7-OMe)])
B13: SEQ ID NO. 107 (peptide)
peptide: cyclo([bhcLeu][Nle][4Pal][Pip2c]W[NMeE]N[4Pal][Trp(7-Cl)][αMeS][Phe(4-COOH)][Phe(2-F,4-COOH)][Sar][Trp(βS-Me,7-OMe)])
modifications: reading uncertain; also: printed as cyclo(bhcLeu-Nle-4Pal-Pip2c-W-NMeE-N-4Pal-Trp7Cl-aMeS-Phe4COOH-Phe2F4COOH-Sar-SbMeW7OMe)
B14: SEQ ID NO. 55 (peptide)
peptide: cyclo([bhcLeu][Ahp′][SbMe4Pal]DW[dHyp]N[Phe(4-COOH)][Trp(7-CN)][αMeS][Phe(4-CONH2)][Phe(4-CONH2)][Sar][Trp(βS-Me,7-OMe)])
modifications: reading uncertain; also: printed as cyclo(bhcLeu-Ahp-SbMe4Pal-D-W-dProt4OH-N-Phe4COOH-Trp7CN-aMeS-Phe4CONH2-Phe4CONH2-Sar-SbMeW7OMe)
B15: SEQ ID NO. 117 (peptide)
peptide: cyclo([bhcLeu][Nle][4Pal][Pip2c]W[NMeE]N[Phe4COOMe][Trp(7-Cl)][αMeS][Phe(4-COOH)]Y[Sar][Trp(βS-Me,7-OMe)])
modifications: reading uncertain; also: printed as cyclo(bhcLeu-Nle-4Pal-Pip2c-W-NMeE-N-Phe4COOMe-Trp7Cl-aMeS-Phe4COOH-Y-Sar-SbMeW7OMe)
B16: SEQ ID NO. 142 (peptide)
peptide: cyclo([bhcLeu][SerOEt][4Pal][Pipt5OH]W[dHyp]N[4Pal][Trp(7-Cl)][αMeS][Phe(4-CONH2)][Phe(4-COOH)][Sar][Trp(βS-Me,7-OMe)])
modifications: reading uncertain; also: printed as cyclo(bhcLeu-SerOEt-4Pal-Pipt5OH-W-dProt4OH-N-4Pal-Trp7Cl-aMeS-Phe4CONH2-Phe4COOH-Sar-SbMeW7OMe)
B17: SEQ ID NO. 47 (peptide)
peptide: cyclo([bhcLeu][LysMe3][4Pal][Pip′]W[NMeE]N[4Pal][Trp(7-Cl)][αMeS][Phe(4-COOH)]Y[Sar][Trp(βS-Me,7-OMe)])
B18: SEQ ID NO. 133 (peptide)
peptide: cyclo([bhcLeu][Nle][4Pal][Pipt5OH][Trp(7-aza)][dNMeE]N[F4SO2NH2][Trp(7-CN)][αMeS][Phe(4-CONH2)][Phe(4-COOH)][Sar][Trp(βS-Me,7-OMe)])
modifications: reading uncertain
B19: SEQ ID NO. 28 (peptide)
peptide: cyclo([bhcLeu][Nle][4Pal][Pip2c]W[NMeE]N[4Pal][Trp(7-Cl)][αMeS][Phe(3-COOH)]Y[Sar][Trp(βS-Me,7-OMe)])
modifications: reading uncertain; also: printed as cyclo(bhcLeu-Nle-4Pal-Pip2c-W-NMeE-N-4Pal-Trp7Cl-aMeS-Phe3COOH-Y-Sar-SbMeW7OMe)
B20: SEQ ID NO. 137 (peptide)
peptide: cyclo([bhcLeu][hL][4Pal][Pip2c]W[NMeE]N[4Pal][Trp(7-Cl)][αMeS][Phe(4-COOH)]Y[Sar][Trp(βS-Me,7-OMe)])
modifications: reading uncertain; also: printed as cyclo(bhcLeu-hL-4Pal-Pip2c-W-NMeE-N-4Pal-Trp7Cl-aMeS-Phe4COOH-Y-Sar-SbMeW7OMe)
B21: SEQ ID NO. 125 (peptide)
peptide: {CH2CO}-[Nle][4Pal][Prot4NH2][Trp(7-aza)][NMeE]N[4Pal][Trp(7-Cl)][αMeS][Phe(4-COOH)]Y[Sar][Trp(βS-Me,7-OMe)]C-NH2
modifications: thioether N-14

Biological target: T1, TNFR1 on THP-1 Lucia NF-κB cells
Experiment: cell-based or functional assay

THP-1 IC50 | Binder
1.4 nM | B1

Biological target: T2, TNFR1 on THP-1 Lucia NF-kB reporter …
Experiment: cell-based or functional assay

THP-1 IC50 | Binder
0.8 nM | B2
2 nM | B3
1.2 nM | B4
1.5 nM | B5
0.8 nM | B6
3.9 nM | B7
16.2 nM | B8
0.7 nM | B9
1.6 nM | B10
1.2 nM | B11
1.4 nM | B12
1 nM | B13
1.3 nM | B14
2.1 nM | B15
1.1 nM | B16
1.9 nM | B17
1.4 nM | B18
1.6 nM | B19
1.3 nM | B20
4.1 nM | B21
